These results are taken from publication PMC7955110, “Cryo-EM structure of amyloid fibrils formed by the entire low complexity domain of TDP-43” (Nature Communications, 2021).

The data set concerns the molecule itself. The data set is described as follows: cryo-EM structure; amyloid fibrils formed at 30 uM protein in 20 mM sodium acetate pH 4.0, 37 °C with rotation, four rounds of sequential seeding (10% w/w sonicated fibrils); helical reconstruction of twisted fibrils, 3.2 Å.

B1: TDP-43 low complexity domain (transactive response DNA-binding protein of 43 kDa, C-terminal low-complexity domain) (domain or fragment, UniProt Q13148 267-414, looked up)
chain: NRQLERSGRFGGNPGGFGNQGGFGNSRGGGAGLGNNQGSNMGGGMNFGAFSINPAMMAAAQAALQSSWGMMGMLASQQNQSGPSGNNQNQGNMQREPNQAFGSGNNSYSGSNSGAAIGWGSASNAGSGSGFNGGFGSSMDSKSSGWGM
notes: TDP-43, entire C-terminal low-complexity domain; Wild-type, non-phosphorylated; The assayed form is an amyloid fibril: a single protofilament of stacked subunits with an ordered core of residues 276-414; Five chains were built in the model; also called TDP-43 LCD; LCD; source: Rosetta (DE3) pLysS cells, purified (Ni-NTA in 8 M urea, HPLC on a C4 column), lyophilized
Regarding B1, the binding result is “binds”.
